Measurements: publication PMC2875865 (Nature cell biology, 2010)

Assays:
[1] = molecular target: full-length FLAG-tagged STIM1 purified from insect cells (human, UniProt Q13586 23-685); experiment: pull-down
[2] = molecular target: full-length FLAG-tagged Orai1 purified from insect cells (human, UniProt Q96D31 1-301); experiment: pull-down
full-length FLAG-tagged Orai1 purified from insect cells, sequence (Q96D31 whole entry): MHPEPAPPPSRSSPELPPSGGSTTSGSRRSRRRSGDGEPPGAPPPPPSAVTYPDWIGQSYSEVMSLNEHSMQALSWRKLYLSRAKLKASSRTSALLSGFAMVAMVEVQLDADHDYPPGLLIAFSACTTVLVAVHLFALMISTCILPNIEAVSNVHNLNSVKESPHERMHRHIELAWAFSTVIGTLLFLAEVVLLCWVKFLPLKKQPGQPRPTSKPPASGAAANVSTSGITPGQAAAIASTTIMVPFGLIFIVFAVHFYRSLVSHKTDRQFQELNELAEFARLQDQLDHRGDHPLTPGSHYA

full-length FLAG-tagged STIM1 purified from insect cells, sequence (Q13586 23-685): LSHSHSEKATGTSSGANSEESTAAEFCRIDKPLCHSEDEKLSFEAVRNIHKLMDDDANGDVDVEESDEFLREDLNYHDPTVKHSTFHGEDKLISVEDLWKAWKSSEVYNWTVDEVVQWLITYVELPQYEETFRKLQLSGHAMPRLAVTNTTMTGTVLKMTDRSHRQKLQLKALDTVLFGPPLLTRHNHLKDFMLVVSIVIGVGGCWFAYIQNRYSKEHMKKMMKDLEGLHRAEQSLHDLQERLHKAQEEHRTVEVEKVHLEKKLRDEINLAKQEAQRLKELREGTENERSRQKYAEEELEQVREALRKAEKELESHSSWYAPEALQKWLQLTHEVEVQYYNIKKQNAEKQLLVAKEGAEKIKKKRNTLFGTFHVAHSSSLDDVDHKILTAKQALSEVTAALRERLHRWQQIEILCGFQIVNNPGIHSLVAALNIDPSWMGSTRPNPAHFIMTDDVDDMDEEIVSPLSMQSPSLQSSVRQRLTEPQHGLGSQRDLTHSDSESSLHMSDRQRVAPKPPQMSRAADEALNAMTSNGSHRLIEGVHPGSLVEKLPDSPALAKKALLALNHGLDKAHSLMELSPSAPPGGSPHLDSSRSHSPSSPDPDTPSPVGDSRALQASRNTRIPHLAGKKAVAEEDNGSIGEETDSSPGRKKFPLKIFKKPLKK

binding result [1]: binds
binding result [2]: binds
B1: GST-fused STIM1 serine/threonine rich sequence (S/T) (domain or fragment)
chain: SSLDDVDHKILTAKQALSEVTAALRERLHRWQQIEILCGFQIVNNPGIHSLVAALNIDPSWMGSTRPNPAHFIMTDDVDDMDEEIVSPLSMQSPSLQSSVRQRLTEPQHGLGSQRDLTHSDSESSLHMSDRQRVAPKPPQMSRAADEALNAMTSNGSHRLIEGVHPGSLVEKLPDSPALAKKALLALNHGLDKAHSLMELS
